Assay results: patent US20170145104A1 (Bristol-Myers Squibb, published 2017)
Substitutions are numbered along the chain they refer to. In names and notes the source's numbering stands. Read-outs that look alike come from different tables or passages of the source. One block for each binder: values may come before it.

What was measured:
[1] = target: T1, human GITR, membrane bound (on activated human T cells and on 3A9-hGITR cells) (human, UniProt Q9Y5U5 26-241); test: FACS binding to 3A9-hGITR transfectant, Geo-MFI (PE); EC50 table beside the curves; unit from the axis
T1 construct: whole, on cells; the cell is named under assay; also called huGITR; TNFRSF18
T1 sequence (looked up): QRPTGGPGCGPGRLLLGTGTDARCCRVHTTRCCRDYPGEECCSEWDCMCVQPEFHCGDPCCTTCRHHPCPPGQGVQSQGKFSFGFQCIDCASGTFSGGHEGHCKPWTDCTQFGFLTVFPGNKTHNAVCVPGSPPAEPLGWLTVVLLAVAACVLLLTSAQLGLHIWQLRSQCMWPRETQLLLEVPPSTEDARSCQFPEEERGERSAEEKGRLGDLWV

[2] = target: T1, human GITR, membrane bound (on …); test: as above; remark: listed apart in the source

B1: Non mutated 28F3 (control of the VH CDR3 mutant panel) (antibody, V domains shown)
VH: QVQLVESGGGVVQPGRSLRLSCAASGFTFSSYGMHWVRQAPGKGLEWVAVIWYEGSNKYYADSVKGRFTISRDNSKNTLYLQMNSLRAEDTAVYYCARGGSMVRGDYYYGMDVWGQGTTVTVSS
VL: AIQLTQSPSSLSASVGDRVTITCRASQGISSALAWYQQKPGKAPKLLIYDASSLESGVPSRFSGSGSGTDFTLTISSLQPEDFATYYCQQFNSYPYTFGQGTKLEIK
notes: also called H6
EC50 [1]: 0.334 nM

B4: 28F3 VH CDR3 mutant M98I, M111F (antibody, V domains shown)
VH: B1 VH with M102I, M111F
VL: B1 VL
notes: also called D2
EC50 [2]: 1.33 nM

B5: 28F3 VH CDR3 mutant M98A, M111L (antibody, V domains shown)
VH: B1 VH with M102A, M111L
VL: B1 VL
notes: also called G1
EC50 [2]: 187 nM

B7: 28F3 VH CDR3 mutant M98I, D106E (antibody, V domains shown)
VH: B1 VH with M102I, D106E
VL: B1 VL
notes: also called C5; M98I/D160E
EC50 [1]: 0.349 nM

B9: 28F3 VH CDR3 mutant M98F (antibody, V domains shown)
VH: B1 VH with M102F
VL: B1 VL
notes: also called A6
EC50 [1]: 0.797 nM

B10: 28F3 VH CDR3 mutant M98F, D106E, M111L (antibody, V domains shown)
VH: B1 VH with M102F, D106E, M111L
VL: B1 VL
notes: also called B3
EC50 [2]: 417 nM

B11: 28F3 VH CDR3 mutant M98A, D106E, M111F (antibody, V domains shown)
VH: B1 VH with M102A, D106E, M111F
VL: B1 VL
notes: also called F4
EC50 [1]: 19.1 nM

B13: 28F3 VH CDR3 mutant M98F, D106E (antibody, V domains shown)
VH: B1 VH with M102F, D106E
VL: B1 VL
notes: also called A5
EC50 [1]: 0.683 nM

B15: 28F3 VH CDR3 mutant M98L, M111F (antibody, V domains shown)
VH: B1 VH with M102L, M111F
VL: B1 VL
notes: also called C2
EC50 [2]: 1.38 nM

B17: 28F3 VH CDR3 mutant M98L (antibody, V domains shown)
VH: B1 VH with M102L
VL: B1 VL
notes: also called B6
EC50 [1]: 0.757 nM

B18: 28F3 VH CDR3 mutant M98I, D106E, M111L (antibody, V domains shown)
VH: B1 VH with M102I, D106E, M111L
VL: B1 VL
notes: also called D3
EC50 [2]: 1.07 nM

B21: 28F3 VH CDR3 mutant M98A (antibody, V domains shown)
VH: B1 VH with M102A
VL: B1 VL
notes: also called F6
EC50 [1]: 1.5 nM

B22: 28F3 VH CDR3 mutant M98L, M111L (antibody, V domains shown)
VH: B1 VH with M102L, M111L
VL: B1 VL
notes: also called C1
EC50 [2]: 0.674 nM

B23: 28F3 VH CDR3 mutant M98I, M111L (antibody, V domains shown)
VH: B1 VH with M102I, M111L
VL: B1 VL
notes: also called D1
EC50 [2]: 1.03 nM

B25: 28F3 VH CDR3 mutant M98F, D106E, M111F (antibody, V domains shown)
VH: B1 VH with M102F, D106E, M111F
VL: B1 VL
notes: also called B4
EC50 [1]: 54 nM

B26: 28F3 VH CDR3 mutant M98A, D106E (antibody, V domains shown)
VH: B1 VH with M102A, D106E
VL: B1 VL
notes: also called F5
EC50 [1]: 0.401 nM

B30: 28F3 VH CDR3 mutant M98L, D106E (antibody, V domains shown)
VH: B1 VH with M102L, D106E
VL: B1 VL
notes: also called B5
EC50 [1]: 0.311 nM

B35: 28F3 VH CDR3 mutant M98I (antibody, V domains shown)
VH: B1 VH with M102I
VL: B1 VL
notes: also called C6
EC50 [1]: 1.42 nM

B37: 28F3 VH CDR3 mutant M98L, D106E, M111F (antibody, V domains shown)
VH: B1 VH with M102L, D106E, M111F
VL: B1 VL
notes: also called C4
EC50 [1]: 0.638 nM

B40: 28F3 VH CDR3 mutant M98F, M111L (antibody, V domains shown)
VH: B1 VH with M102F, M111L
VL: B1 VL
notes: also called B1
EC50 [2]: 51.8 nM

B41: 28F3 VH CDR3 mutant M98L, D106E, M111L (antibody, V domains shown)
VH: B1 VH with M102L, D106E, M111L
VL: B1 VL
notes: also called C3
EC50 [2]: 1.22 nM

B42: 28F3 VH CDR3 mutant M98A, M111F (antibody, V domains shown)
VH: B1 VH with M102A, M111F
VL: B1 VL
notes: also called G2
EC50 [2]: 171 nM

B43: 28F3 VH CDR3 mutant M98A, D106E, M111L (antibody, V domains shown)
VH: B1 VH with M102A, D106E, M111L
VL: B1 VL
notes: also called G3
EC50 [2]: 62 nM

Results, then the binder that gave them:

EC50 [2]: 2.87 nM
B2: 28F3 VH CDR3 mutant M98V, D106E, M111L (antibody, V domains shown)
VH: B1 VH with M102V, D106E, M111L
VL: B1 VL
notes: also called A3

EC50 [2]: ~1250 nM
B3: 28F3 VH CDR3 mutant M98S, D106E, M111L (antibody, V domains shown)
VH: B1 VH with M102S, D106E, M111L
VL: B1 VL

EC50 [2]: 16.6 nM
B6: 28F3 VH CDR3 mutant M98Q, M111F (antibody, V domains shown)
VH: B1 VH with M102Q, M111F
VL: B1 VL
notes: also called E2

EC50 [1]: 1.44 nM
B8: 28F3 VH CDR3 mutant M98Q (antibody, V domains shown)
VH: B1 VH with M102Q
VL: B1 VL
notes: also called D6

EC50 [2]: 60.3 nM
B12: 28F3 VH CDR3 mutant M98S, M111L (antibody, V domains shown)
VH: B1 VH with M102S, M111L
VL: B1 VL
notes: also called F1

EC50 [2]: 3.7 nM
B14: 28F3 VH CDR3 mutant M98V, M111F (antibody, V domains shown)
VH: B1 VH with M102V, M111F
VL: B1 VL
notes: also called A2

EC50 [1]: 0.58 nM
B16: 28F3 VH CDR3 mutant M98V, D106E (antibody, V domains shown)
VH: B1 VH with M102V, D106E
VL: B1 VL
notes: also called H4

EC50 [2]: 20.4 nM
B19: 28F3 VH CDR3 mutant M98Q, D106E, M111L (antibody, V domains shown)
VH: B1 VH with M102Q, D106E, M111L
VL: B1 VL
notes: also called E3

EC50 [2]: 246 nM
B20: 28F3 VH CDR3 mutant M98S, M111F (antibody, V domains shown)
VH: B1 VH with M102S, M111F
VL: B1 VL
notes: also called F2

EC50 [1]: 0.968 nM
B24: 28F3 VH CDR3 mutant M98Q, D106E (antibody, V domains shown)
VH: B1 VH with M102Q, D106E
VL: B1 VL
notes: also called D5

EC50 [1]: 2.29 nM
B27: 28F3 VH CDR3 mutant M98S, D106E (antibody, V domains shown)
VH: B1 VH with M102S, D106E
VL: B1 VL
notes: also called E5

EC50 [2]: 246 nM
B28: 28F3 VH CDR3 mutant M98Y, M111F (antibody, V domains shown)
VH: B1 VH with M102Y, M111F
VL: B1 VL
notes: also called H2

EC50 [2]: 3.53 nM
B29: 28F3 VH CDR3 mutant M98V, M111L (antibody, V domains shown)
VH: B1 VH with M102V, M111L
VL: B1 VL
notes: also called A1

EC50 [1]: 0.772 nM
B31: 28F3 VH CDR3 mutant M98V, D106E, M111F (antibody, V domains shown)
VH: B1 VH with M102V, D106E, M111F
VL: B1 VL
notes: also called A4

EC50 [1]: 0.798 nM
B32: 28F3 VH CDR3 mutant M98Y, D106E (antibody, V domains shown)
VH: B1 VH with M102Y, D106E
VL: B1 VL
notes: also called G5

EC50 [2]: 21.7 nM
B33: 28F3 VH CDR3 mutant M98Q, M111L (antibody, V domains shown)
VH: B1 VH with M102Q, M111L
VL: B1 VL
notes: also called E1

EC50 [1]: 3.51 nM
B34: 28F3 VH CDR3 mutant M98S (antibody, V domains shown)
VH: B1 VH with M102S
VL: B1 VL
notes: also called E6

EC50 [2]: 183 nM
B36: 28F3 VH CDR3 mutant M98Y, D106E, M111L (antibody, V domains shown)
VH: B1 VH with M102Y, D106E, M111L
VL: B1 VL
notes: also called H3

EC50 [1]: 1.68 nM
B38: 28F3 VH CDR3 mutant M98Y (antibody, V domains shown)
VH: B1 VH with M102Y
VL: B1 VL
notes: also called G6

EC50 [1]: 0.34 nM
B39: 28F3 VH CDR3 mutant M98V (antibody, V domains shown)
VH: B1 VH with M102V
VL: B1 VL
notes: also called H5

EC50 [1]: 3.33 nM
B44: 28F3 VH CDR3 mutant M98Q, D106E, M111F (antibody, V domains shown)
VH: B1 VH with M102Q, D106E, M111F
VL: B1 VL
notes: also called D4

EC50 [2]: 620 nM
B45: 28F3 VH CDR3 mutant M98Y, M111L (antibody, V domains shown)
VH: B1 VH with M102Y, M111L
VL: B1 VL
notes: also called H1
